Data taken from the supplement of paper PMC10567573.
± gives the standard deviation.

Assay: protein stability index of a GFP-peptide fusion (GPS, HEK-293T) (PSI 1-6); higher = more stable
Details: c terminus: a fixed tail appended
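Also: 24-mer peptide tiles fused after GFP, lentivirally expressed, FACS-sorted into six equal bins by GFP/DsRed ratio, decoded by Illumina sequencing, PSI is the read-weighted mean bin number.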

Sequence | protein stability index (treatment: DMSO) | protein stability index (treatment: MLN4924 1 uM, 8 h)
PETHIFTAPEEVPKVSDQALVSAH [DMRTC1] | 4.96 ± 0.34 | 4.92 ± 0.11
PFKFHMLHSGLVHGLAFWFDVAFI [CARM1] | 2.75 ± 0.15 | 2.97 ± 0.2
PFSEFFKLRFNRKKKGMYRKAITE [PWWP2B] | 2.35 ± 0.43 | 2.9 ± 0.27
PFTVSPNTHVSQVFNLFRTMGLRH [CLCN6] | 2.39 ± 0.45 | 2.45 ± 0.38
PGAHGRFMPQGAGGHTREARIQTL [RSAD1] | 3.63 ± 0.35 | 3.67 ± 0.29
PGNGTHGLSPEEKEQLSNDRETQE [ELOA2] | 5.73 ± 0.074 | 5.75 ± 0.16
PGSCGAGAPSPGSSDVSTAGTGAS [ELF3] | 4.98 ± 0.29 | 5.08 ± 0.17
PHKERYFDRVDENNPEYLRERNMA [ADD1] | 4.47 ± 0.36 | 4.69 ± 0.14
PIGCDGVLFSTHTLDKCGICQGDG [ADAMTSL2] | 3.62 ± 0.26 | 3.79 ± 0.47
PKFKKWCDDYFFIAHRGERRGIGG [CPOX] | 2.54 ± 0.14 | 2.56 ± 0.26
PLCNFNITESFTELARIVLLRHGM [RAB40B] | 2.8 ± 0.87 | 2.19 ± 0.97
PLFYPGIRAGRKNAAPLTIRPPTD [TRIM39] | 3.56 ± 0.25 | 3.58 ± 0.15
PLLCPGCQGQPQGKAVVSHSKGHK [ELOA2] | 4.12 ± 0.43 | 4.53 ± 0.42
PLRSSLPISLQATPATPATLSASS [TFE3] | 4.47 ± 0.1 | 4.57 ± 0.14
PLSPPTAPDRATAVATASRLGPYV [TRIB3] | 4.72 ± 0.26 | 4.65 ± 0.091
PNHLGGGAVVLGAESHASKDVAID [STX5] | 5.1 ± 0.37 | 5.15 ± 0.17
PPKRMLGADREFIEARRRALKRFV [SNX8] | 3.36 ± 0.43 | 3.62 ± 0.17
PPLWAASAAGHLDVVRSLLRRGAS [FEM1A] | 3.55 ± 0.28 | 3.43 ± 0.28
PPPPPGLPSDGDHQVPTTAGNKAA [WASL] | 5.46 ± 0.33 | 5.43 ± 0.12
PPPPPPPPAELKAEPGFEPADCKR [CEBPB] | 5.52 ± 0.16 | 5.4 ± 0.28
PPYSRLSPRDEYKPLDLSDSTLSY [SMAD6] | 3.89 ± 0.18 | 3.84 ± 0.24
PQESAILQLFHQDGTFSPVTLALF [CLCN6] | 2.45 ± 0.46 | 2.42 ± 0.32

Sequence | protein stability index (treatment: DMSO) | protein stability index (treatment: MLN4924 1 uM, 8 h)
PQGISPVSQHWATWALYNLVSVYP [ZER1] | 3 ± 0.57 | 2.88 ± 0.32
PQLVSSAREGSSEPWLPLTDGRSP [PLEKHN1] | 4.83 ± 0.25 | 4.58 ± 0.085
PQQTWASPAEVVDLTLDEDSRRKY [C18orf25] | 5.1 ± 0.3 | 5.13 ± 0.14
PQVWREAATQVFFALGLGFGGVIA [SLC6A17] | 3.78 ± 0.85 | 3.4 ± 0.82
PRKVSTCTDHELENHSMYCVQCKM [TRIM9] | 4.53 ± 0.27 | 4.74 ± 0.33
PRLFKEWNITKLSIEYDSEPFGKE [CRY1] | 3.06 ± 0.33 | 3.46 ± 0.39
PRSCSSGPAGPYLLSKKGALQSRA [PLEKHN1] | 3.96 ± 0.52 | 4.29 ± 0.39
PSPPTSPPWGLGPGAGDPAPGIGP [MYCL] | 4.7 ± 0.18 | 4.72 ± 0.069
PSTLGRCKAFSTCVSHLIIVTVHY [OR10K2] | 3.07 ± 0.41 | 2.89 ± 0.5
PVALLLAQHKDRSTQLEMQLEKPK [MNAT1] | 3.84 ± 0.19 | 3.8 ± 0.12
PVASSGEFFGSASQPAVELVSGSQ [CLINT1] | 4.57 ± 0.16 | 4.82 ± 0.21
PVHLVDKLPLPSTLRSHLKSFSMA [RAB40A] | 2.6 ± 0.085 | 2.63 ± 0.19
PVMNGGVQTWTQPRLCYLVKEGGS [PDZK1] | 2.75 ± 0.23 | 3.09 ± 0.27
PVRTTNKISKQFVAPADVRRLLSY [ZSWIM9] | 2.44 ± 0.17 | 2.84 ± 0.13
PVVGSTRRLYEKKIFEYETQRRRL [EMD] | 3.16 ± 0.25 | 3.18 ± 0.06
PWKKCCFSGDGEYIVAGSARQHAL [RBBP5] | 2.14 ± 0.27 | 2.36 ± 0.22
QAFCCENDINILRVSNPGRLAELL [GADD45A] | 2.74 ± 0.36 | 2.82 ± 0.34
QAIIESCSRQFPEFQERARKRIRT [NOL4L] | 3.69 ± 0.27 | 4.09 ± 0.21
QAKEELARMLREYQELMSLKLALD [KRT71] | 2.61 ± 0.37 | 2.77 ± 0.47
QALGTHRPVNKLAELQCEVAALRE [RASAL3] | 3.81 ± 0.38 | 3.75 ± 0.41
QAQAVQTEQAVALLRDRTGQQSDT [SCARA5] | 5.35 ± 0.34 | 5.19 ± 0.23
QAQKDPKKDRPLARRKSELPQDPH [PPP2R5C] | 5.12 ± 0.17 | 5.34 ± 0.17

Sequence | protein stability index (treatment: DMSO) | protein stability index (treatment: MLN4924 1 uM, 8 h)
QDCGFEHLVPVIEMWADQLTSLKD [CEP70] | 2.76 ± 0.39 | 2.94 ± 0.53
QEAEEPKARVLRSKSLCHDEIENL [CDC25B] | 5.37 ± 0.089 | 5.57 ± 0.23
QECLKQLAIKKQQHIDNITQIEDA [TRIM14] | 4.93 ± 0.19 | 4.72 ± 0.22
QELPPYNGFGLVEDSAQNCFALIP [EFHC1] | 3.38 ± 0.18 | 3.4 ± 0.24
QERERVLTHFSRRYCQCNPDDSTS [PSD2] | 3.88 ± 0.14 | 3.93 ± 0.14
QGDKAIREQGPREQEPELSFLKQK [PBXIP1] | 5.44 ± 0.33 | 5.42 ± 0.16
QGGGNGQQQQAMSFAILRIIRLVR [KCNA4] | 2.46 ± 0.28 | 2.67 ± 0.24
QGWMNLLNMAKKSVDIVSSHWDLN [PLD5] | 2.9 ± 0.45 | 3.46 ± 0.69
QIEERHQEKKRKFLESTDSFNNEL [SMARCE1] | 4.82 ± 0.25 | 5.08 ± 0.37
QIENLNIQVEDIRIRAILSTYRKR [LOXL2] | 2.67 ± 0.28 | 2.85 ± 0.37
QITSRVVSAATQLRHFFLVEDLVD [RTN2] | 2.83 ± 0.24 | 3 ± 0.27
QKNFGLYVQEKRDGLKRRQQLEEE [RAD54B] | 4.7 ± 0.32 | 4.66 ± 0.2
QKQQAPRMDTPPPEERLEKQNEKL [CCDC89] | 5.46 ± 0.44 | 5.62 ± 0.2
QKVAVYRALQAALAESGGSPDVLQ [TRADD] | 2.31 ± 0.36 | 2.4 ± 0.46
QKVTCFYQPAPYFAAEARYPIYVI [TENT5D] | 2.89 ± 0.4 | 2.54 ± 0.49
QLISRMEYVHSKNLIYRDVKPENF [CSNK1G3] | 2.37 ± 0.24 | 2.42 ± 0.17
QLPGLLNFGEFKCSDSDKKCHLWT [CLCN6] | 2.56 ± 0.43 | 2.45 ± 0.36
QLQPTSIEKEVFPIMAKEGQLYAM [GMPPB] | 3.1 ± 0.27 | 2.96 ± 0.5
QLYCEKVQGLMKEYLLSFPAGKTP [VPS39] | 2.27 ± 0.16 | 2.41 ± 0.16
QNGEEGTSTPEDKESGQEGVDSMA [SMARCE1] | 5.44 ± 0.17 | 5.65 ± 0.29
QPAFTGIKGKEGSALTEGAKEEGG [EPB41L3] | 5.5 ± 0.071 | 5.65 ± 0.23
